Reference: WO2015109212A1 (dated 2015)

B1: 24E7 (antibody, IgG1, V domains shown)
VH: QVQLVQSGAEVKKPGESLKISCKGSGYSFTSYWIGWVRQMPGKGLEWMGIIYPGDSDTRYSPSFQGQVTISADKSISTAYLQWSSLKASDTAMYYCARETLAAVGSNYYYYGMDVWGQGTTVTVSS
VL: SYELTQPPSVSVSPGQTARITCSGDALPRKYAYWYQQKSGQAPVLVIYEDSKRPSGIPERFSGSSSGTMATLTISGAQVEDEADYYCYSTDRSGNFWVFGGGTKVTVL
notes: also called mAb 24E7
B2: 16B2 (antibody, IgG1, V domains shown)
VH: QVQLVQSGAEVKKPGASVKVSCKASGYTFTSYGISWVRQAPGQGLEWMGWISAYNGNTNYAQKLQGRVTMTTDTSTSTAYMELRSLRSDDTAVYYCAREGAIYYDSSGYYFPFDYWGQGTLVTVSS
VL: SYELTQPPSVSVSPGQTARITCSGDALPRKFAYWYQQKSGQAPVMVIYGDSKRPPGIPERFSGSSSGTMATLTITGAQVEDEADYYCYSTDSGGDVSVFGGGTKLTVL
notes: also called mAb 16B2

What was measured:
[1] = biological target: T1, Human IL-2 (Humanzyme, HumanKine IL-2) (human, UniProt P60568 21-153); experiment: SPR (Biacore T200), antibody captured, human IL-2 injected
T1 construct: Bought; also called hIL-2

[2] = biological target: T2, mouse IL-2 (Peprotech #212-12) (mouse, UniProt P04351 21-169); experiment: told in Example 10; method not named there (SPR in Example 4)
T2 construct: Bought
T2 sequence (looked up): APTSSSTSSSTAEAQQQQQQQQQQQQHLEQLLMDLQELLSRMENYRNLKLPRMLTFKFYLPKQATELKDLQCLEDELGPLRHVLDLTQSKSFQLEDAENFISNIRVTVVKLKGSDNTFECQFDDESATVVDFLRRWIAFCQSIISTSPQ

T1 sequence (P60568 21-153 limits assumed): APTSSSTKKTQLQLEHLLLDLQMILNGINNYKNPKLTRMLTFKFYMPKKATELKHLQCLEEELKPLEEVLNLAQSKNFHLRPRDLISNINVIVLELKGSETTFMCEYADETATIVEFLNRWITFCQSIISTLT

Row | Binder | binding result [1] | binding result [2]
1 | B1 | binds | binds
2 | B2 | binds | binds
